Assay [1] deals with T1, human FSTL1 (Homo sapiens, UniProt Q12841).
T1 construct: AAA linker + 10xHis (C); made in house; host or cells: Expi293 (transient expression; purified from culture supernatant on HisPur Cobalt Resin)
T1 sequence (Q12841 with tags, fused parts or gaps): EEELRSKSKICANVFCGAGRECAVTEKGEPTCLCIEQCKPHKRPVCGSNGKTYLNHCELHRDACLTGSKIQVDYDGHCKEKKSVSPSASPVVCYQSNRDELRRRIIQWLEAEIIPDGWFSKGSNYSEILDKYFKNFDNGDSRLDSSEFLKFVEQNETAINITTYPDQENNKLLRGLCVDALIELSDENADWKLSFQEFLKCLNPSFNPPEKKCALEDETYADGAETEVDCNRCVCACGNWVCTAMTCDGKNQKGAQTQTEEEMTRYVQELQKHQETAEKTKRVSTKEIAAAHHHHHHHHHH
In words: ELISA binding activity of purified antibody against human FSTL1. Conditions: FIG. 95B. The procedure: The reactivity of the obtained antibody clones described above with FSTL1 was evaluated by ELISA under the following conditions.
(Table 2 ELISA Conditions for Binding Activity Evaluation of Purified Antibody)
Antibodies used: anti-dinitrophenyl (DNP) antibody (negative control), #5-2, #5-3, #5-8, #5-10, #5-43, #6-55, and #7-34
FIGS. 96 and 97 show results of evaluating binding activity under the condition of Table 3 as to clones differing in screening and antibody purification timings.
(Table 3 ELISA Conditions for Binding Activity Evaluation of Purified Antibody)
A general note: ELISA stands for enzyme-linked immunosorbent assay.

Assay [2] deals with various human tumor cells. The assay can be described thus: Proliferative capacity and invasive capacity of various human tumor cells (Example 26). It is filed as cell-based. Conditions: antibody 5 μg/ml, particularly in a highly metastatic tumor cell line highly expressing Snail, FIG. 114A. As for the experimental part: Specifically, the influence of the anti-FSTL1 antibody on proliferative capacity and invasive capacity was studied using various human tumor cells, regardless of the presence or absence of the expression of Snail or FSTL1. Specifically, the anti-FSTL1 antibody (#6-55, 5 μg/ml) or a control antibody (aHema: mouse chimeric anti-hemagglutinin antibody, 5 μg/ml) was added to systems in which a pancreatic cancer cell line Panc1 (ATCC #CRL-1469), Panc1-snail+ which is a Panc1 cell line forced to express Snail, a pancreatic cancer cell line MIAPaCa (ATCC #CRL-1420), a bone metastatic breast cancer cell line MDA231 (ATCC #HTB-26), and a melanoma cell line Hs294T (ATCC IHTB-140) were each cultured at 1×10^5 cells. After culture for 3 days, the number of cells per culture system was counted to evaluate the proliferative capacity of the cells. The cells (5×10^4 cells) after the counting were further inoculated to Matrigel-coated transwell chamber (Corning Inc. #354480) and cultured for 4 hours. Then, the membranes were removed, and stained and fixed with Crystal Violet fixative. Then, the number of cells that permeated the membranes was counted under a microscope to evaluate the invasive capacity of the cells.

For assay [3], the system named is mouse bone marrow cells. In words: Ability of FSTL1-induced MSCs to differentiate into adipocytes (Examples 14, 16). It is filed as cell-based. Conditions: Example 16; antibody 20.0-2.5 μg/ml; FIG. 104B. The procedure: The antibody clone (#6-55, #7, #10, #13, or #22) was evaluated for its activity by the same testing method as in Example 13. #6-55 was set as a positive control for activity. […] Mouse bone marrow cells were supplemented with FSTL1 and the predetermined concentration of each antibody and cultured for 8 days. 5×10^4 cells/well were separated from each culture system and evaluated for the ability to differentiate into adipocytes using an adipocyte differentiation reagent included in “Mesenchymal Stem Cell Functional Identification Kit (R&D Systems, Inc., Cat. No. SC010)”. For the evaluation method, the cells were supplemented with the adipocyte differentiation reagent and cultured for 8 days. Then, adipocytes per culture system were counted under a microscope for evaluation. […]
In the same way as in Example 15, mouse bone marrow cells were supplemented with FSTL1 and the predetermined concentration of each antibody and cultured for 8 days. 5×10^4 cells/well were separated from each culture system and evaluated for the ability to differentiate into adipocytes using an adipocyte differentiation reagent included in “Mesenchymal Stem Cell Functional Identification Kit (R&D Systems, Inc., Cat. No. SC010)”. […] Then, adipocytes per culture system were counted under a microscope for evaluation (FIG. 104B). […]

The test system of assay [4] is induction of MSCs having the ability to differentiate into adipocytes. The assay can be described thus: Ability to differentiate into adipocytes (Examples 14, 16). It is filed as cell-based, mouse. Conditions: Example 16, FIG. 10B/40B; antibody 2.5-20.0 μg/ml. The procedure: The antibody clone (#6-55, #7, #10, #13, or […]) was evaluated for its activity by the same testing method as in Example 13. #6-55 was set as a positive control for activity. […] Mouse bone marrow cells were supplemented with FSTL1 and the predetermined concentration of each antibody and cultured for 8 days. 5×10^4 cells/well were separated from each culture system and evaluated for the ability to differentiate into adipocytes using an adipocyte differentiation reagent included in “Mesenchymal Stem Cell Functional Identification Kit (R&D Systems, Inc., Cat. No. SC010)”. For the evaluation method, the cells were supplemented with the adipocyte differentiation reagent and cultured for 8 days. Then, adipocytes per culture system were counted under a microscope for evaluation. […]
In the same way as in Example 15, mouse bone marrow cells were supplemented with FSTL1 and the predetermined concentration of each antibody and cultured for 8 days. 5×10^4 cells/well were separated from each culture system and evaluated for the ability to differentiate into adipocytes using an adipocyte differentiation reagent included in “Mesenchymal Stem Cell Functional Identification Kit (R&D Systems, Inc., Cat. No. SC010)”. […] Then, adipocytes per culture system were counted under a microscope for evaluation (FIG. 10B). […]

Entries after “also recorded” stand apart in the source; their conditions may differ.

B1: #6-55: chicken-mouse chimeric anti-FSTL1 antibody clone; variable regions SEQ ID NO: 783 (light), 785 (heavy) (antibody, V domains shown)
VH: AVTLDESGGGLQTPGGALSLVCKGSGFTFTSVTMQWVRQAPGKGLEWVASVCSGSSTYYAPAVKGRATISRDNGQSTVRLQLSNLRPEDTGTYYCAKIAGRARWSCTSAAYNIDAWGHGTEVIVSS
VL: ASTQPSSVSAIPGETVKITCSGGGNNYGWYQQRSPGSAPVTVIYYNDNRPSNIPSRFSGSTSGSTSTLTITGVQADDEAIYYCGSWDSNTDSGIFGAGTTLTVL
modifications: mouse constant regions
Take B1: in assay [1], the “binding activity against human FSTL1” value is “specific and equivalently strong binding activity”. Further, the “proliferative capacity of tumor cells” value in assay [2] (3 days) was “strongly suppressed”. Also, the “invasive capacity of tumor cells” value in assay [2] (Matrigel-coated transwell, 4 hours) is given as “strongly suppressed”. Besides, the “cells differentiating into adipocytes” value in assay [3] is given as “decreased in number by the addition of #6-55 in a dose-dependent manner”. Moreover, the “differentiation into adipocytes (induction of MSCs having the ability to differentiate into adipocytes)” value in assay [4] was “inhibited by #6-55 in an antibody dose-dependent manner; also recorded: cells differentiating into adipocytes decreased in number by the addition of #6-55 in a dose-dependent manner”.
